The target in assay [1] is human sialoadhesin factor-3 (SAF-3), on cells (human) (UniProt Q9Y286). In words: flow cytometry on monocyte-derived DCs cultured 7 days with mAb 12B1.
For assay [2], the target named is SAF-2 (UniProt Q9NYZ4 17-363, limits assumed). In words: displacement immunoassay.
Sequence of SAF-2 (Q9NYZ4 17-363 limits assumed): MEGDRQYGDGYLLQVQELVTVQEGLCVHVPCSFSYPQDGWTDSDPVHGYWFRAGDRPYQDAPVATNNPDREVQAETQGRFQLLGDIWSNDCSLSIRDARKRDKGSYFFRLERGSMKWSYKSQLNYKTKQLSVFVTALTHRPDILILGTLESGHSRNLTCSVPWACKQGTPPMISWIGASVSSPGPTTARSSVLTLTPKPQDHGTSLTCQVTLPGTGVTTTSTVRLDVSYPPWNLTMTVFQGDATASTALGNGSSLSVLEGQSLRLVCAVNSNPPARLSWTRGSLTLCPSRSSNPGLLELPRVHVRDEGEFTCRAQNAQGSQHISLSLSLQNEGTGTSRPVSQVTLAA

Sequence of human sialoadhesin factor-3 (SAF-3), on cells (human) (Q9Y286 19-467 L192P/I393V limits assumed): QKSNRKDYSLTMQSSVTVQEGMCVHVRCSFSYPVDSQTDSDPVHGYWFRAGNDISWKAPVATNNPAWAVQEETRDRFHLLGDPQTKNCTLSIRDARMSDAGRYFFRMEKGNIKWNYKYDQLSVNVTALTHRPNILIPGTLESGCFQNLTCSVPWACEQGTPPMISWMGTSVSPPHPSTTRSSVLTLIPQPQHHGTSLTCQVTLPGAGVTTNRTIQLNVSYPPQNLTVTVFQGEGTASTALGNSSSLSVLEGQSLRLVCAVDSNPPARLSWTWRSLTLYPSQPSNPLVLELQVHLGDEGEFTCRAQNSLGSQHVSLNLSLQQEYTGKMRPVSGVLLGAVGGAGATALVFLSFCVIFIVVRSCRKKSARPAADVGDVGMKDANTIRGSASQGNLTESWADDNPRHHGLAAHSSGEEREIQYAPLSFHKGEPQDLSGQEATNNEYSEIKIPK

Consider Isotype Control (antibody), for which, in assay [1], the Mean Fluorescent Intensity was found to be 3.5 MFI.

B1: monoclonal antibody 12B1 (antibody, IgG2a, V domains shown)
VH: QIQLQQSGPELVKPGASVKVSCKASGYSFTDYNIYWVKQSHGKSLEWIGYIDPYNDDTGYNQKFKGKATLTVDKSSSTAFMHLNSLTSEDSAVYYCASEGIHWGQGTLVTVS
VL: DIVMTQSQKFMSTSVGDRVSVTCKASQNVGTNVAWFQQKPGQSPKALIYSASYRYNGVPDRFTGSGSGTDFTLTISNVQSEDLADYFCQQYNIYPYTFGGGTKLEIK
notes: also called mAb 12B1; SAF-3 mAb (clone 12B1)
As for B1, the binding result in assay [2] is reported as “no binding (tested: max. displacement 5%)”.
